Article PMC9482650, “Quantitative fragmentomics allow affinity mapping of interactomes” (Nature Communications, 2022)

Legend:
Test in all cases: holdup assay
Parameters in all cases: key: below the threshold = too weak to quantify, mostly under pKd 3.1 to 4
LDB3, O75112 = molecular target: LDB3, O75112
HTRA2, O43464 = molecular target: HTRA2, O43464
TX1BP3, O14907 = molecular target: T1, TX1BP3, O14907
T1 sequence (O14907 10-122, limits assumed, looked up): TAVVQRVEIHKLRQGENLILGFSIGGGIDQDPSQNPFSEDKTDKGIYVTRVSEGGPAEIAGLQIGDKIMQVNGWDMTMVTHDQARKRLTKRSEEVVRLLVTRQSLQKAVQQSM

NOS1, P29475 = molecular target: NOS1, P29475
NOS1, P29475, sequence (P29475 9-101): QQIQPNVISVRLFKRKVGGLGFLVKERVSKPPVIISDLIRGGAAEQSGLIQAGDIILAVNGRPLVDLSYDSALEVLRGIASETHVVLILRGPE

PARD3_3, Q8TEW0 = molecular target: PARD3_3, Q8TEW0
PARD3_3, Q8TEW0, sequence (Q8TEW0 582-685): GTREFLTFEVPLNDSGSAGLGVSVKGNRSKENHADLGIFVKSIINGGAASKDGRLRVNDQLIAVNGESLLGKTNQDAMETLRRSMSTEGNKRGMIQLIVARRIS

GORASP1, Q9BQQ3 = molecular target: GORASP1, Q9BQQ3
GORASP1, Q9BQQ3, sequence (Q9BQQ3 1-208): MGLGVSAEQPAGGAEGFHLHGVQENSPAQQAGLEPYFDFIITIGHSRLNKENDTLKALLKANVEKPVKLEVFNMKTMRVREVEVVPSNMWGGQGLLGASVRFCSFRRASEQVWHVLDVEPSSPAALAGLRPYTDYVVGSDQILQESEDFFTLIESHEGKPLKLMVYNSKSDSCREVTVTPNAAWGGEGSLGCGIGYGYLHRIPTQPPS

GRIP2_5, Q9C0E4 = molecular target: GRIP2_5, Q9C0E4
GRIP2_5, Q9C0E4, sequence (Q9C0E4 544-642): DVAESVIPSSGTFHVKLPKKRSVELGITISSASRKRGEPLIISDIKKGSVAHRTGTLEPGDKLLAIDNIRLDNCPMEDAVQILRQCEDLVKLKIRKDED

GRIP2_6, Q9C0E4 = molecular target: GRIP2_6, Q9C0E4
GRIP2_6, Q9C0E4, sequence (Q9C0E4 648-740): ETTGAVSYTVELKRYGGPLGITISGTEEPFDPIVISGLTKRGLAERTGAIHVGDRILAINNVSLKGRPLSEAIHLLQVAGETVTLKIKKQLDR

GRIP2_7, Q9C0E4 = molecular target: GRIP2_7, Q9C0E4
GRIP2_7, Q9C0E4, sequence (Q9C0E4 934-1023): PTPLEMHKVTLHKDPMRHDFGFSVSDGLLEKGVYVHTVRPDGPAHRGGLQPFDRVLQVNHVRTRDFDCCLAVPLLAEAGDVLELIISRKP

DLG1_1, Q12959 = molecular target: DLG1_1, Q12959
GRIP2_4, Q9C0E4 = molecular target: GRIP2_4, Q9C0E4
GRIP2_4, Q9C0E4, sequence (Q9C0E4 446-548): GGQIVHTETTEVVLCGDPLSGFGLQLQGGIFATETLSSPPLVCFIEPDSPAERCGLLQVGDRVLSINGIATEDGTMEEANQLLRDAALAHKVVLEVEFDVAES

MPP2, Q14168 = molecular target: T2, MPP2, Q14168
T2 sequence (Q14168 180-250, limits assumed, looked up): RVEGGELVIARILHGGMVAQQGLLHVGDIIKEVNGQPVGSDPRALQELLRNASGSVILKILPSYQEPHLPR

MPDZ_10, O75970 = molecular target: T3, MPDZ_10, O75970
T3 sequence (O75970 1624-1722, limits assumed, looked up): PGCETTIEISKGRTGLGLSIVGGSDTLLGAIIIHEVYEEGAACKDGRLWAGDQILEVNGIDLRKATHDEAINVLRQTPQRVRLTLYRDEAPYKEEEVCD

FRMPD1, Q5SYB0 = molecular target: T4, FRMPD1, Q5SYB0
T4 sequence (Q5SYB0 52-145, limits assumed, looked up): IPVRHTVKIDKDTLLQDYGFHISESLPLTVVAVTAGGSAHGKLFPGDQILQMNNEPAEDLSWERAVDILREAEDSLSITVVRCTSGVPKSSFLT

Inadl_10, Q8NI35 = molecular target: Inadl_10, Q8NI35
Inadl_10, Q8NI35, sequence (Q8NI35 1673-1763): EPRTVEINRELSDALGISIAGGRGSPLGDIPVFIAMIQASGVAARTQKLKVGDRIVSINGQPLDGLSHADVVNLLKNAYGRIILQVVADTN

LNX2_2, Q8N448 = molecular target: T5, LNX2_2, Q8N448
T5 sequence (Q8N448 334-432, limits assumed, looked up): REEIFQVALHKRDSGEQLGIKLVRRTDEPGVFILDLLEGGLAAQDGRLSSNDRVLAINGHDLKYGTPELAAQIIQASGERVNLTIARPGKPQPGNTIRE

DLG2_3, Q15700 = molecular target: DLG2_3, Q15700
SIPA1L2, Q9P2F8 = molecular target: T6, SIPA1L2, Q9P2F8
T6 sequence (Q9P2F8 945-1036, limits assumed, looked up): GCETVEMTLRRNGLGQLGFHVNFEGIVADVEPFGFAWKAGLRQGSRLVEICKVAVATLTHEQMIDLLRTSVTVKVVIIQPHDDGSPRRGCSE

DLG3_1, Q92796 = molecular target: T7, DLG3_1, Q92796
T7 sequence (Q92796 125-227, limits assumed, looked up): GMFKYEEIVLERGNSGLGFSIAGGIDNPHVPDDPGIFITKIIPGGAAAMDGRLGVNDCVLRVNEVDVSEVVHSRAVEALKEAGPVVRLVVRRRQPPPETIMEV

MAGI1_2, Q96QZ7 = molecular target: MAGI1_2, Q96QZ7
MAGI1_2, Q96QZ7, sequence (Q96QZ7 456-580): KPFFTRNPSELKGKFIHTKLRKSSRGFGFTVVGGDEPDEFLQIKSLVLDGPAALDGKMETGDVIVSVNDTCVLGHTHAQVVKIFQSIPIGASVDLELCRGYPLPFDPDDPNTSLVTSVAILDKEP

LIN7C, Q9NUP9 = molecular target: T8, LIN7C, Q9NUP9
T8 sequence (Q9NUP9 88-185, limits assumed, looked up): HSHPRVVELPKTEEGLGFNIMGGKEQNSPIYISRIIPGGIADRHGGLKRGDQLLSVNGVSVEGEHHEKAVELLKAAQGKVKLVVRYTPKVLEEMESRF

APBA2_2, Q99767 = molecular target: T9, APBA2_2, Q99767
T9 sequence (Q99767 654-744, limits assumed, looked up): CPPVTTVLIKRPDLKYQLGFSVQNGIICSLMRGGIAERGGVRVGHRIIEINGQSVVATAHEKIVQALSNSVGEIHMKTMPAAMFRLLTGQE

DVL3, Q92997 = molecular target: T10, DVL3, Q92997
T10 sequence (Q92997 244-331, limits assumed, looked up): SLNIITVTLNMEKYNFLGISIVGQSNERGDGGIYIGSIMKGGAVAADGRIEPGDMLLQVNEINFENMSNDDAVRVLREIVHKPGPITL

SCRIB_3, Q14160 = molecular target: SCRIB_3, Q14160
SCRIB_3, Q14160, sequence (Q14160 999-1103): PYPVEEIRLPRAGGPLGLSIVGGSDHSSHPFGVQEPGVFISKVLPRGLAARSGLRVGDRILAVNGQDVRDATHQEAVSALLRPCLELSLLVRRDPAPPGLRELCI

NHERF4_2, Q86UT5 = molecular target: NHERF4_2, Q86UT5
NHERF4_2, Q86UT5, sequence (Q86UT5 220-308): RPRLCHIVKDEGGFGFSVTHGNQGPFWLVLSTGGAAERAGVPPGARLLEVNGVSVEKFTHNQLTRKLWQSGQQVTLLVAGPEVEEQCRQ

DFNB31_2, Q9P202 = molecular target: T11, DFNB31_2, Q9P202
T11 sequence (Q9P202 274-371, limits assumed, looked up): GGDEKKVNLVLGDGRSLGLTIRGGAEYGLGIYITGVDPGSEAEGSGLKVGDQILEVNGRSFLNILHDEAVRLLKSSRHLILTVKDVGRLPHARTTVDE

[1] = plain residues with an end cap or a label only (N-terminal biotin on a linker: ttds)
[2] = plain residues with an end cap or a label only (N-terminal biotin on a linker: ado-ado)

Measured: pKd

HTRA2, O43464, sequence (O43464 355-458): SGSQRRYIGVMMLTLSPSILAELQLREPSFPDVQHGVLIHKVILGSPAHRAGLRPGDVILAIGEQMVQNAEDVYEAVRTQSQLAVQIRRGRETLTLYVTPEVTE
LDB3, O75112, sequence (O75112 1-94): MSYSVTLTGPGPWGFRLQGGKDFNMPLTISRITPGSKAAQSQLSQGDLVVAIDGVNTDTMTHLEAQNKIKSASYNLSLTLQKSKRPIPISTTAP

B1: CIT, O14578 (peptide)
chain: VNKVWDQSSV
6.25: TX1BP3, O14907; [1]
3.71: DLG2_3, Q15700; [1]
below the threshold: LDB3, O75112; [1] | HTRA2, O43464; [1] | NOS1, P29475; [1] | PARD3_3, Q8TEW0; [1] | GORASP1, Q9BQQ3; [1] | GRIP2_5, Q9C0E4; [1] | GRIP2_6, Q9C0E4; [1] | GRIP2_7, Q9C0E4; [1] | DLG1_1, Q12959; [1] | GRIP2_4, Q9C0E4; [1] | MPP2, Q14168; [1] | MPDZ_10, O75970; [1] | FRMPD1, Q5SYB0; [1] | Inadl_10, Q8NI35; [1] | LNX2_2, Q8N448; [1] | SIPA1L2, Q9P2F8; [1] | DLG3_1, Q92796; [1] | MAGI1_2, Q96QZ7; [1] | LIN7C, Q9NUP9; [1] | APBA2_2, Q99767; [1] | DVL3, Q92997; [1] | SCRIB_3, Q14160; [1] | NHERF4_2, Q86UT5; [1] | DFNB31_2, Q9P202; [1]

B2: RCN1, Q15293 (peptide)
chain: EDLTKNHDEL
3.78: NOS1, P29475; [2]
below the threshold: HTRA2, O43464; [2] | TX1BP3, O14907; [2] | PARD3_3, Q8TEW0; [2] | GORASP1, Q9BQQ3; [2] | GRIP2_5, Q9C0E4; [2] | GRIP2_6, Q9C0E4; [2] | DLG1_1, Q12959; [2] | GRIP2_4, Q9C0E4; [2] | MPP2, Q14168; [2] | MPDZ_10, O75970; [2] | FRMPD1, Q5SYB0; [2] | Inadl_10, Q8NI35; [2] | LNX2_2, Q8N448; [2] | DLG2_3, Q15700; [2] | SIPA1L2, Q9P2F8; [2] | DLG3_1, Q92796; [2] | MAGI1_2, Q96QZ7; [2] | LIN7C, Q9NUP9; [2] | APBA2_2, Q99767; [2] | DVL3, Q92997; [2] | NHERF4_2, Q86UT5; [2] | DFNB31_2, Q9P202; [2]
3.57: SCRIB_3, Q14160; [2]
3.54: LDB3, O75112; [2]
3.59: GRIP2_7, Q9C0E4; [2]

B3: TANC2, Q9HCD6 (peptide)
chain: PKRPFVESNV
4.31: DLG1_1, Q12959; [1]
3.86: DLG2_3, Q15700; [1]
5.9: TX1BP3, O14907; [1]
4.79: SCRIB_3, Q14160; [1]
3.82: DLG3_1, Q92796; [1]
below the threshold: LDB3, O75112; [1] | HTRA2, O43464; [1] | NOS1, P29475; [1] | PARD3_3, Q8TEW0; [1] | GORASP1, Q9BQQ3; [1] | GRIP2_5, Q9C0E4; [1] | GRIP2_6, Q9C0E4; [1] | GRIP2_7, Q9C0E4; [1] | GRIP2_4, Q9C0E4; [1] | MPP2, Q14168; [1] | FRMPD1, Q5SYB0; [1] | Inadl_10, Q8NI35; [1] | LNX2_2, Q8N448; [1] | SIPA1L2, Q9P2F8; [1] | MAGI1_2, Q96QZ7; [1] | LIN7C, Q9NUP9; [1] | APBA2_2, Q99767; [1] | DVL3, Q92997; [1] | NHERF4_2, Q86UT5; [1] | DFNB31_2, Q9P202; [1]
3.51: MPDZ_10, O75970; [1]

B4: MAP4, P27816 (peptide)
chain: LDSQIQETSI
5.17: SCRIB_3, Q14160; [1]
3.55: NOS1, P29475; [1]
4.07: DLG2_3, Q15700; [1]
3.86: PARD3_3, Q8TEW0; [1]
below the threshold: LDB3, O75112; [1] | HTRA2, O43464; [1] | GORASP1, Q9BQQ3; [1] | GRIP2_5, Q9C0E4; [1] | GRIP2_6, Q9C0E4; [1] | GRIP2_7, Q9C0E4; [1] | GRIP2_4, Q9C0E4; [1] | MPP2, Q14168; [1] | MPDZ_10, O75970; [1] | FRMPD1, Q5SYB0; [1] | Inadl_10, Q8NI35; [1] | LNX2_2, Q8N448; [1] | SIPA1L2, Q9P2F8; [1] | DLG3_1, Q92796; [1] | MAGI1_2, Q96QZ7; [1] | APBA2_2, Q99767; [1] | DVL3, Q92997; [1] | NHERF4_2, Q86UT5; [1] | DFNB31_2, Q9P202; [1]
3.96: TX1BP3, O14907; [1]
3.64: DLG1_1, Q12959; [1]
3.68: LIN7C, Q9NUP9; [1]

B5: KIDINS220, Q9ULH0 (peptide)
chain: GFGEERESIL
below the threshold: LDB3, O75112; [2] | HTRA2, O43464; [2] | NOS1, P29475; [2] | GORASP1, Q9BQQ3; [2] | GRIP2_5, Q9C0E4; [2] | GRIP2_6, Q9C0E4; [2] | GRIP2_7, Q9C0E4; [2] | DLG1_1, Q12959; [2] | GRIP2_4, Q9C0E4; [2] | MPP2, Q14168; [2] | MPDZ_10, O75970; [2] | FRMPD1, Q5SYB0; [2] | Inadl_10, Q8NI35; [2] | LNX2_2, Q8N448; [2] | DLG2_3, Q15700; [2] | SIPA1L2, Q9P2F8; [2] | DLG3_1, Q92796; [2] | MAGI1_2, Q96QZ7; [2] | APBA2_2, Q99767; [2] | DVL3, Q92997; [2] | NHERF4_2, Q86UT5; [2] | DFNB31_2, Q9P202; [2]
4.35: PARD3_3, Q8TEW0; [2]
3.73: TX1BP3, O14907; [2]
3.63: LIN7C, Q9NUP9; [2]
4.56: SCRIB_3, Q14160; [2]
